Data set [1] in a line: Body weight of B-hPD-1 humanized mice bearing MC38-hPD-L1 tumors, Embodiment 2 (antibody 2E5 / Lenvatinib mesylate). The data set is classed as in vivo, Mus musculus. The note with it: for Weight (g)/Mean ± SEM Day 17: 17th day after the start of treatment; for Weight (g) Changes: Day 17 vs Day 0. As for the experimental part:
(§1) MC38-hPD-L1 tumor cells were resuspended in 1×PBS to a concentration of 5×10^5 cells per 0.1 mL. Each of the B-hPD-1 humanized mice was subcutaneously inoculated at the right lateral thorax region with 0.1 mL of the cell suspension. When the average tumor volume reached about 77 mm^3, the mice with moderate tumor volume were selected and randomly divided into 6 groups according to tumor volume, with 10 mice in each group, and the treatment was initiated on the same day.
Animals were weighed 2-3 times a week before tumor inoculation, during animal grouping and the treatment, and before the euthanasia.
(§2) The original data measured and observed must be recorded. The original data was analyzed and the results were expressed by mean and standard error (Mean±SEM). The data of body weight, tumor volume and tumor weight was statistically analyzed using independent-samples t-test. All data were analyzed using SPSS, P<0.05 is considered to be statistically significant.

In data set [2] the test system is subcutaneous MC38-hPD-L1 transplanted tumor. Description: Antibody 2E5 monotherapy or in combination with Lenvatinib mesylate on B-hPD-1 humanized mouse MC38-hPD-L1 colon cancer model: tumor volume, tumor weight, TGI, synergy score. The data set is classed as in vivo. The note with it: for Tumor volume (mm^3)/Mean ± SEM Day 17: 17th day after the start of treatment. As for the experimental part: Synergy score was calculated using the following formula described in Clarke R. Issues in experimental design and endpoint analysis in the study of experimental cytotoxic agents in vivo in breast cancer and other models[J]. Breast Cancer Research & Treatment, 1997, 46(2-3):255-278, which is incorporated by reference in its entirety:
Synergy score=((A/C)×(B/C))/(AB/C);
where A is RTV value of drug A; B is RTV value of drug B; C is RTV value of vehicle control; AB is RTV value of combination treatment with A and B respectively. • Synergy score>1 represents synergistic; • Synergy score=1 represents additive; • Synergy score<1 represents antagonistic.
where V0 and Vt are the average tumor volume at the start of treatment (day 0) and the average tumor volume on a certain time point (day t).
Mouse colon cancer cells MC38 were purchased from Shun Ran (Shanghai) Biotechnology Co., Ltd., and the cells were cultured in a 37° C., 5% CO2 incubator supplemented with Dulbecco's Modified Eagle's medium containing 10% inactivated fetal bovine serum. MC38 cells were genetically modified to overexpress human PD-L1 and knock out murine PD-L1, the modified cells were named as MC38-hPD-L1 cells.
as §1
Tumor volume was measured 2-3 times a week in two dimensions using a caliper, and the volume was expressed in mm^3 using the formula: V=0.5 a×b^2 where a and b were the long and short diameters of the tumor, respectively.
At the termination of the experiment, the animals were photographed to record the tumor bearing state after euthanasia, and the tumors of the mice were weighed and photographed.
TGITV(%)=[1−(Ti−T0)/(Vi−V0)]×100%.
Ti: tumor volume of the treatment group at day i following treatment; T0: tumor volume of the treatment group at day 0 following treatment; Vi: tumor volume of the control group at day i following treatment; V0: tumor volume of the control group at day 0 following treatment.
At the termination of the experiment, the animals were euthanized, the tumors were separated and weighed, and the difference of tumor weight between each group was calculated. Tumor weight inhibition (TGITW) was calculated by the formula:
TGITW (%)=(WC−WT)/[…]×100%; where We means tumor weight of control group, WT means tumor weight of treatment group.
as §2

Setting [3] is: Antibody 2E5 1 mg/kg i.p., Lenvatinib mesylate 1 mg/kg p.o. QD (G2, G4, G5).
The mark [4] stands for this setting: Antibody 2E5 2 mg/kg i.p., Lenvatinib mesylate 1 mg/kg p.o. QD (G3, G6).
Where [5] appears, read: Antibody 2E5 1 mg/kg, Lenvatinib mesylate 1 mg/kg (G2, G4, G5).
The mark [6] stands for this setting: Antibody 2E5 2 mg/kg, Lenvatinib mesylate 1 mg/kg (G3, G6).

B1: Antibody 2E5: anti-PD-1 antibody (antibody N), heavy chain variable SEQ ID NO: 30, light chain variable SEQ ID NO: 31, human IgG4 constant region (antibody, V domains shown)
VH: QVQLVQSGAEVKKPGSSVKVSCKASGFTFTTYYISWVRQAPGQGLEYLGYINMGSGGTNYNEKFKGRVTITADKSTSTAYMELSSLRSEDTAVYYCAIIGYFDYWGQGTMVTVSS
VL: DVVMTQSPLSLPVTLGQPASISCRSSQSLLDSDGGTYLYWFQQRPGQSPRRLIYLVSTLGSGVPDRFSGSGSGTDFTLKISRVEAEDVGVYYCMQLTHWPYTFGQGTKLEIK
modifications: human IgG4 constant region; heavy chain variable region; light chain variable region
Turning to B1, the results for the “Weight (g)/Mean ± SEM Day 17” value in data set [1] (setting [3]) and in data set [1] (setting [4]) were 28.6 ± 0.7 g and 27.8 ± 0.7 g, respectively. Besides, the “Weight (g)/Mean ± SEM Day 0” value in data set [1] (setting [3]) is listed as 24.9 ± 0.7 g; in data set [1] (setting [4]), 25.0 ± 0.6 g. The “Weight (g) Changes” value in data set [1] (setting [5]) was “+3.7 g”; in data set [1] (setting [6]), “+2.8 g”. For the same molecule, the entries for the “Tumor volume (mm^3)/Mean ± SEM Day 17” value in data set [2] (setting [3]) and in data set [2] (setting [4]) were 1195 ± 252 mm^3 and 1302 ± 202 mm^3, respectively. Further, the “Tumor volume (mm^3)/Mean ± SEM Day 0” value in data set [2] (setting [5]) and in data set [2] (setting [6]) was 77 ± 2 mm^3 each time. The “Tumor weight (g) Mean ± SEM” value in data set [2] (Day 17, Antibody 2E5 1 mg/kg, Lenvatinib mesylate 1 mg/kg (G2, G4, G5)) is 0.909 ± 0.186 g; in data set [2] (Day 17, Antibody 2E5 2 mg/kg, Lenvatinib mesylate 1 mg/kg (G3, G6)), 1.080 ± 0.190 g. Also, the “Tumor growth inhibition (%)” value came out at 56.4% in data set [2] (by tumor volume, Day 17, vs hIgG4 control, Antibody 2E5 1 mg/kg, Lenvatinib mesylate 1 mg/kg (G2, G4, G5)); 52.2% in data set [2] (by tumor volume, Day 17, vs hIgG4 control, Antibody 2E5 2 mg/kg, Lenvatinib mesylate 1 mg/kg (G3, G6)); 56.4% in data set [2] (tumor weight analysis (Table 21), Day 17, vs IgG4 control, Antibody 2E5 1 mg/kg, Lenvatinib mesylate 1 mg/kg (G2, G4, G5)); 48.2% in data set [2] (tumor weight analysis (Table 21), Day 17, vs IgG4 control, Antibody 2E5 2 mg/kg, Lenvatinib mesylate 1 mg/kg (G3, G6)).
